# Source: publication PMC4026322
# B1: ABCC6: N15D (protein)
# parent chain: MAAPAEPCAGQGVWNQTEPEPAATSLLSLCFLRTAGVWVPPMYLWVLGPIYLLFIHHHGRGYLRMSPLFKAKMVLGFALIVLCTSSVAVALWKIQQGTPEAPEFLIHPTVWLTTMSFAVFLIHTERKKGVQSSGVLFGYWLLCFVLPATNAAQQASGAGFQSDPVRHLSTYLCLSLVVAQFVLSCLADQPPFFPEDPQQSNPCPETGAAFPSKATFWWVSGLVWRGYRRPLRPKDLWSLGRENSSEELVSRLEKEWMRNRSAARRHNKAIAFKRKGGSGMKAPETEPFLRQEGSQWRPLLKAIWQVFHSTFLLGTLSLIISDVFRFTVPKLLSLFLEFIGDPKPPAWKGYLLAVLMFLSACLQTLFEQQNMYRLKVLQMRLRSAITGLVYRKVLALSSGSRKASAVGDVVNLVSVDVQRLTESVLYLNGLWLPLVWIVVCFVYLWQLLGPSALTAIAVFLSLLPLNFFISKKRNHHQEEQMRQKDSRARLTSSILRNSKTIKFHGWEGAFLDRVLGIRGQELGALRTSGLLFSVSLVSFQVSTFLVALVVFAVHTLVAENAMNAEKAFVTLTVLNILNKAQAFLPFSIHSLVQARVSFDRLVTFLCLEEVDPGVVDSSSSGSAAGKDCITIHSATFAWSQESPPCLHRINLTVPQGCLLAVVGPVGAGKSSLLSALLGELSKVEGFVSIEGAVAYVPQEAWVQNTSVVENVCFGQELDPPWLERVLEACALQPDVDSFPEGIHTSIGEQGMNLSGGQKQRLSLARAVYRKAAVYLLDDPLAALDAHVGQHVFNQVIGPGGLLQGTTRILVTHALHILPQADWIIVLANGAIAEMGSYQELLQRKGALMCLLDQARQPGDRGEGETEPGTSTKDPRGTSAGRRPELRRERSIKSVPEKDRTTSEAQTEVPLDDPDRAGWPAGKDSIQYGRVKATVHLAYLRAVGTPLCLYALFLFLCQQVASFCRGYWLSLWADDPAVGGQQTQAALRGGIFGLLGCLQAIGLFASMAAVLLGGARASRLLFQRLLWDVVRSPISFFERTPIGHLLNRFSKETDTVDVDIPDKLRSLLMYAFGLLEVSLVVAVATPLATVAILPLFLLYAGFQSLYVVSSCQLRRLESASYSSVCSHMAETFQGSTVVRAFRTQAPFVAQNNARVDESQRISFPRLVADRWLAANVELLGNGLVFAAATCAVLSKAHLSAGLVGFSVSAALQVTQTLQWVVRNWTDLENSIVSVERMQDYAWTPKEAPWRLPTCAAQPPWPQGGQIEFRDFGLRYRPELPLAVQGVSFKIHAGEKVGIVGRTGAGKSSLASGLLRLQEAAEGGIWIDGVPIAHVGLHTLRSRISIIPQDPILFPGSLRMNLDLLQEHSDEAIWAALETVQLKALVASLPGQLQYKCADRGEDLSVGQKQLLCLARALLRKTQILILDEATAAVDPGTELQMQAMLGSWFAQCTVLLIAHRLRSVMDCARVLVMDKGQVAESGSPAQLLAQKGLFYRLAQESGLV
# Experiment: immunofluorescence in HEK293 cells (data not shown)
# Conditions: glycan lost; control: wild type
protein,measurement,value
B1,localisation_or_trafficking,no change
